Results published in the DeepSol protein solubility set.

Assay: soluble on expression in E. coli; label from the status in PepcDB or PDB records

Question: For “MAQMTMVQAINDALKTELKNDQDVLIFGEDVGVNGGVFRVTEGLQKEFGEDRVFDTPLAESGIGGLAMGLAVEGFRPVMEVQFLGFVFEVFDAIAGQIARTRFRSGGTKTAPVTIRGPFGGGVHTPELHADNLEGILAQSPGLKVVIPSGPYDAKGLLISSIRSNDPVVYLEHMKLYRSFREEVPEEEYTIDIGKANVKKEGNDISIITYGAMVQESMKAAEELEKDGYSVEVIDLRTVQPIDVDTIVASVEKTGRAVVVQEAQRQAGVGAAVVAELSERAILSLEAPIGRVAAADTIYPFTQAENVWLPNKNDIIEKAKETLEF”, which “soluble on expression in E. coli” value is on record?
Answer: not soluble

Question: For “MAQMYFYYSAMNAGKSTTLLQSAFNYQERGMNPLIFTAAIDDRFGVGKVSSRIGLEAEAHLFHADTDLLHVIATLHEAEPRHCILMDECQFLSKEQVYQLTEVVDKLDIPVLCYGLRTDFLGELFEGSKYLLSWADKLIELKTICHCGRKANMVIRTDEHGNAISEGDQVAIGGNDKYVSVCRQHYKEALGR”, which “soluble on expression in E. coli” value is on record?
Answer: not soluble

Question: Which “soluble on expression in E. coli” value does the source give for “MAQRNLDYRLLKDRRNEYGVSQNKLAIACGLSRTYLNLIENGGVTASTKTMRKIFDQLESFNPDLPLTLLFDYVRIRFSTTDVRKIIQELLHLKFEYMLHEDYAFYSYQEQYVMGDIVVMLSHEEDKGVLLELKGRGCRQFETFLLAQKRSWYDFFEDCLKTGGVMKRLDLAINDRVGLLDISDLTKKCQKEECISLFRTFKSYRSGELLKADEKDGMGNTLYIGSLKSEVYFCLYEKDYEQYIKLGIPLDQTETKNRFEIRLKNDRAYHAIQDLLKGRSIESTTFSIINRYLRFADKVEGKRRTNWPLNEQWGRFIGRNRKEIQLTSEPKPYTIERTLNWLGRQVAPTWKMAKELDRLNQTTYIQDMVRNARLSDQHKKILEQQSMAIENLIV” here?
Answer: not soluble

Question: For “MAQSKILLYYKFTPIADPKAMMLWQRDMCELLGLKGRILISEHGINGTVGGDMDACKRYVRKMREYPGFRGTEFKWSDGGAEDFPKLSVKVRDEIVAFGAPGELKVDEKGVIGGGVHLKPEEVNKLVEERGDDVVFFDGRNAMEAQIGKFKNAVVPDVRTTHDFIRELESGKYDWMKDKPVVSYCTGGIRCEILSSLMKNRGFKEIYQIDGGIVRYGEKYGNDGLWEGSLYVFDRRMHMEFGNGVQDPGFIQLGHCVQCGAPTNKFEHCINEDECRELVLMCPDCYENPATRNCGREHCKEVAAEAAAAAAV”, which “soluble on expression in E. coli” value is on record?
Answer: not soluble

Question: For “MAQSTQEAEGEQQRRQAVLRERYLSFLQKSADKPATIEMCERTTVTATIKAFQPSSEHVIVGTVAVA”, which “soluble on expression in E. coli” value is on record?
Answer: not soluble

Question: For “MAQVPPPMTQVVTSAPPPTAAATVVAGAVAGQPQAVIQQGPPPTNIGYPPNATYSMASLYIGDLHPDVSEAMLFEKFSMAGPVLSIRVCRDNTSRLSLGYAYVNFQQPADAERALDTMNFEVIHGRPMRIMWSQRDPAARRAGNGNIFIKNLDRVIDNKSVYDTFSLFGNILSCKVATDDEGNSKGYGFVHFETEHSAQTAIEKVNGMLLSDKKVYVGKFQPRAQRMKELGESGLKYTNVFVKNFGEHLDQEKLSAMFSKFGEITSAVVMTDAQGKPKGFGFVAFADQDAAGQAVEKLNDSILEGTDCKLSVCRAQKKSERSAELKRKYEALKQERVQRYQGVNLYVKNIEEDLNDDGLRDHFSSFGTITSAKVMVDENGRSKGFGFVCFEKPEEATAAVTDMNSKMIGAKPLYVALAQRKEDRRAQLASQYMQRLATLRMGQQASGVPAMTQLYQPGQQGYFVPNPMNAQGRPGFQPQSAQIRGPPGQRVFQNQMFMQYPFNQRQVYPQQQGRPPMRTNDGRPQYGMAPRPAGAPRVGGPGVQMGGAPIRQQGPAPRGAPQKPFYQGPPRQQQPQQHSQQPAQQPGQQGQGQSGIVIHGQETLTSHMLAQAAPQEQKQLLGERIYALIEKMFPNHKEAGKITGMMLEIDNAELIMMLQDAELFRSKVEEAFGVLTNAQSAAASTSAPTAKN”, which “soluble on expression in E. coli” value is on record?
Answer: not soluble

Question: With “MARAIHVFRTPDRFVAGTVGQPGNRTFYLQAVHDSRVVSVVLEKQQVAVLAERIGALLFEVNRRFGTPVPPEPTEIDDLSPLIMPVDAEFRVGTMGLGWDSEAQSVVVELLAVTDAEFDASVVLDDTEEGPDAVRVFLTPESARQFATRSYRVISAGRPPCPLCDEPLDPEGHICARTNGYRRDVLLGSGDDPAG” as the sequence, how does the “soluble on expression in E. coli” value read?
Answer: soluble

Question: Which “soluble on expression in E. coli” value does the source give for “MARFALVLHAHLPYVRAHGMWPFGEETLYEAMAETYLPLIRVLERLRAEGVEAPFTLGITPILAEQLADARIKEGFWAYAKDRLERAQGDYQRYRGTALEASARHQVAFWELTLDHFQRLSGDLVAAFRKAEEGGQVELITSNATHGYSPLLGYDEALWAQIKTGVSTYRRHFAKDPTGFWLPEMAYRPKGPWKPPVEGPPEGVRPGVDELLMRAGIRYTFVDAHLVQGGEPLSPYGEAALGPVESQEATYHVHELESGLRVLARNPETTLQVWSADYGYPGEGLYREFHRKDPLSGLHHWRVTHRKADLAEKAPYDPEAAFAKTEEHARHFVGLLERLAGRHPEGVILSPYDAELFGHWWYEGVAWLEAVLRLLAQNPKVRPVTAREAVQGPAVRTALPEGSWGRGGDHRVWLNEKTLDYWEKVYRAEGAMREAARRGVLPEGVLRQAMRELLLLEASDWPFLMETGQAEAYARERYEEHARAFFHLLKGASPEELRALEERDNPFPEADPRLYLFREA” here?
Answer: soluble

Question: Which “soluble on expression in E. coli” value does the source give for “MARHSALAQAERLEPLLTTNPLHGATLERIVTHLHDEYGWEELARRVPVKCFQNEPSVGSSLKFLRKTPWAREQVEAEYVKLARREDANPLIDALKRGQALDFTGVSQTKLHAALGWMLRHVEQNAQNLQLYFLPTLAHIQDVNFWPDAEPLPLLNLAIDRSALGAGDYEPGVVAELLRRGADANDPRFWPPLLHTVDVEGQAYQSKTRAPRTDLFDLLLAHGADPALEDSRGNTARSMAEAYGLRAVINKLNTLPAVSGSLEHHHHHH” here?
Answer: soluble

Question: Which “soluble on expression in E. coli” value does the source give for “MARHVFLPPLSVHRHRPHPLGVCGFESFQTLHPRKRAARPDSRPLYELCRHTCLQDFPKIRHPLCRHGTQQHHYARFGAPAPMAAYEKCGGTRRRTSRRQPPFRTRPATQIRLRMAVPPPTYWAEYSTDRLNKEKKNNKPHFVFCTVSHLRRLKGHDVLLTAFARALAQCPQLRLNIGGSGQEEQRLKQQAADLGITHAVTFLGALQPEAVLDLMRNSDAFVLASRTETFGVVYIEALSQGLPVIATRCGGAESIVSDGNGYLVPVDDDDALADALIKMCEHHSDFEPARLRENCLNEFGENAVIGRLIGIFRQAIAEYGKKIPVKYSGLTKIRTRRRSRRQYK” here?
Answer: not soluble

Question: Which “soluble on expression in E. coli” value does the source give for “MARILVIEDEPLVGHMLRRFLERAGHDVVWAPNGEVGLRRLAEGFDLVVCDLIMPGIPGEEVIRRIREEAGPPVLAVSASVSRESQRRALEAGAQAFLGKPFEAQAFLRVVEGLLRGT” here?
Answer: soluble

Question: For “MARLIVNALVSVPLAEIEIGFVRSGGAGGQNVNKLATAAHLRFDIAASSLPETCKTRLLDHRDRRMTAEGIIVIKAQRFGTQEKNREDALARLRGLILQALAQRRPRKPTRPTLAAKKKRLDEKTRHGEIKRLRRRIGDLEHHHHHH”, which “soluble on expression in E. coli” value is on record?
Answer: not soluble

Question: With “MARLTVHTLETAPEAAKPRVEAVPKNNGFIPNLIGVLANAPEALAFYQEVGKLNAANSLTAGEVEVIRIIAVRTNQCSFCVAGHTKLATLKKLLSEQSLNAARALAAGKSDDAKLGALAAFTQAVMAKKGAVSDDELNAFLEAGYNRQQAVEVVMGVALATLCNYANNLAQTEINPKLQAYA” as the sequence, how does the “soluble on expression in E. coli” value read?
Answer: not soluble

Question: Which “soluble on expression in E. coli” value does the source give for “MARPKSEDKKQALLEAATQAIAQSGIAASTAVIARNAGVAEGTLFRYFATKDELINTLYLHLKQDLCQSMIMELDRSITDAKMMTRFIWNSYISWGLNHPARHRAIRQLAVSEKLTKETEQRADDMFPELRDLCHRSVLMVFMSDEYRAFGDGLFLALAETTMDFAARDPARAGEYIALGFEAMWRALTREEQ” here?
Answer: not soluble

Question: For “MARSDSDKNGNGGNLGFEAELFKAADKLRGNMEPSDYKHVALGLIFLKYISDAFEAKHKALLAEDALAAEDKDEYLADNVFWVPKEARWSHLQANAKQPTIGTLIDDAMRAIEKDNASLKGVLPKDYARPALNKVMLGELIDLISGIGHLLPSPSGRGAGGEGQSFDILGRVYEYFLGQFAGAEGKRGGEFYTPRSVVRVLVEMLEPYSGRVYDPCCGSGGMFVQSEKFVQEHGGRIGDIAIYGQESNYTAWRLAKMNLAVRGIDADIRWNNEGSFHKDELRDLKADYILANPPFNISDWGGDRLREDVRWQFGVPPVGNANYAWLQHIYWHLAPNGTAGVVLANGSMSSNQSGEGEIRRAMLEADAVDCMVALPGQLFYSTQIPACLWFLARNKNPANGKTGGLRDRRGHVLFIDARKMGVLVDRTRRELSDEEIQKIARTYHAWRGEPDAGDYADVAGFCKSATLDEIRKHGHVLTPGRYVGAAEVEDDGEPFEEKMARLAAQWRQQRDEAAKLDAAIEANLKELGFWE”, which “soluble on expression in E. coli” value is on record?
Answer: soluble
